Among the data in article PMC7815789, “Degradation of complex arabinoxylans by human colonic Bacteroidetes” (Nature Communications, 2021) are stoichiometry N values, retold here.

This assay has as its target BACINT_01039-CE1 (carbohydrate esterase family 1, acetyl-xylan esterase) (Bacteroides intestinalis DSM 17393) (UniProt B3C975). Briefly: crystal structure; seleno-methionine-labeled BACINT_01039-CE1, 20 mg/mL in 50 mM Tris, 150 mM NaCl pH 7.5; hanging drop; 10 mM ammonium sulfate, 80 mM sodium cacodylate pH 6.5, 21% PEG4000; two molecules in the asymmetric unit as a dimer.

By stoichiometry N is commonly meant a count of units in the complex or per binding partner. For the substance “BACINT_01039-CE1 (carbohydrate esterase family 1, acetyl-xylan esterase) (from UniProt B3C975 1-382) (enzyme)”, the stoichiometry N was determined as 2.
